Test results: ChEMBL document CHEMBL1250451, “Mechanistic insights into a Ca2+-dependent family of alpha-mannosidases in a human gut symbiont” (Nat Chem Biol, 2010); call rule not given here

How the values were obtained:
Assay type in all cases: protein assay
[1] = substrate: O=[N+]([O-])c1ccc(O[C@H]2O[C@H](CO)[C@@H](O)[C@H](O)[C@@H]2O)cc1; test: Ratio of Kcat to Km for Bacteroides thetaiotaomicron GH92 alpha-mannosidase GH92 alpha-mannosidase 3527 assessed as mannose release after 16 hrs by HPLC
[2] = substrate: O=[N+]([O-])c1ccc(O[C@H]2O[C@H](CO)[C@@H](O)[C@H](O)[C@@H]2O)cc1; test: Activity of Bacteroides thetaiotaomicron GH92 alpha-mannosidase GH92 alpha-mannosidase 3527 assessed as mannose release after 16 hrs by HPLC
[3] = substrate: O=[N+]([O-])c1ccc(O[C@H]2O[C@H](CO)[C@@H](O)[C@H](O)[C@@H]2O)cc1; test: Ratio of Kcat to Km for Bacteroides thetaiotaomicron GH92 alpha-mannosidase GH92 alpha-mannosidase 2629 assessed as mannose release after 16 hrs by HPLC
[4] = substrate: O=[N+]([O-])c1ccc(O[C@H]2O[C@H](CO)[C@@H](O)[C@H](O)[C@@H]2O)cc1; test: Activity of Bacteroides thetaiotaomicron GH92 alpha-mannosidase GH92 alpha-mannosidase 2629 assessed as mannose release after 16 hrs by HPLC
[5] = substrate: O=[N+]([O-])c1ccc(O[C@H]2O[C@H](CO)[C@@H](O)[C@H](O)[C@@H]2O)cc1; test: Activity of Bacteroides thetaiotaomicron GH92 alpha-mannosidase GH92 alpha-mannosidase 1878 assessed as mannose release after 16 hrs by HPLC
[6] = substrate: O=[N+]([O-])c1ccc(O[C@H]2O[C@H](CO)[C@@H](O)[C@H](O)[C@@H]2O)cc1; test: Ratio of Kcat to Km for Bacteroides thetaiotaomicron GH92 alpha-mannosidase GH92 alpha-mannosidase 1878 assessed as mannose release after 16 hrs by HPLC
[7] = substrate: O=[N+]([O-])c1ccc(O[C@H]2O[C@H](CO)[C@@H](O)[C@H](O)[C@@H]2O)cc1; test: Ratio of Kcat to Km for Bacteroides thetaiotaomicron GH92 alpha-mannosidase 1032 assessed as mannose release after 16 hrs by HPLC
[8] = substrate: O=[N+]([O-])c1ccc(O[C@H]2O[C@H](CO)[C@@H](O)[C@H](O)[C@@H]2O)cc1; test: Activity of Bacteroides thetaiotaomicron GH92 alpha-mannosidase 1032 assessed as mannose release after 16 hrs by HPLC
[9] = substrate: O=[N+]([O-])c1ccc(O[C@H]2O[C@H](CO)[C@@H](O)[C@H](O)[C@@H]2O)cc1; test: Activity of Bacteroides thetaiotaomicron GH92 alpha-mannosidase GH92 alpha-mannosidase 3773 assessed as mannose release after 16 hrs by HPLC
[10] = substrate: O=[N+]([O-])c1ccc(O[C@H]2O[C@H](CO)[C@@H](O)[C@H](O)[C@@H]2O)cc1; test: Ratio of Kcat to Km for Bacteroides thetaiotaomicron GH92 alpha-mannosidase GH92 alpha-mannosidase 3773 assessed as mannose release after 16 hrs by HPLC

B1: Alpha-1,2-mannosidase (BT_3527) (Bacteroides thetaiotaomicron), Q8A1Y1 (protein)
chain: MKKLALLAFTLFSAWNMDAKTITGPVDYVSPLVGTQSKHALSTGNTYPAIALPWGMNFWVPQTGKMGDGWAYTYDADKIRGFKQTHQPSPWINDYGQFSIMPITGKAVFDQDQRASWFSHKAETATPYYYKVYLADHDVVTEIAPTERAAAFRFTFPENDHSYVVVDAFDNGSFVKVIPSENKIIGYTTKNSGGVPANFKNYFVLEFDKPFTYTAAVANGNIDTNKLEANDKHAGALIGFKTRKGEQVNVRVASSFISPEQAELNLKELGKDNIDQIAAKGRKVWNDVLGRIEVEDDDIDHLRTFYSCLYRSVLFPRSFYEIDAKGDIVHYSPYNGEVLPGYMFTDTGFWDTFRCLFPFLNLMYPSMNMKMQEGLVNTYKESGFLPEWASPGHRGCMVGNNSASVVADAYLKGLKGYDIETLWEAVKHGANAVHPQVSSTGRLGYDYYNKLGYVPYNVGINENAARTLEYAYNDWCIYQLGKALNKPKKEIEIFAKRAMNYKNLYDPEHKLMRGKNEDGKFQSPFNPLKWGDAFTEGNSWHYTWSVFHDPQGLIDLMGGKDGFNQMMDSVFILPPVFDDSYYGGVIHEIREMQIMNMGNYAHGNQPIQHMLYMYNYSGQPWKAQHWIREVMDKLYTPAPDGYCGDEDNGQTSAWYVFSAMGFYPVCPGTDEYILGTPYFKQMKLHLENGKTVTISAPNNGDDKRYISSMTLNGKDHTKNYVTHEDLMNGASITFKMDSKPNEQRGTKETDFPYSFSNEFKKKK
kcat/Km [1]: Not Active | Km [2]: Not Active | kcat [2]: Not Active

B2: Alpha-1,2-mannosidase (BT_2629) (Bacteroides thetaiotaomicron), Q8A4H0 (protein)
chain: MKTHFSFKHLLFLGGAVLYSLQSSAVKNPVDYVSTLIGTQSKFELSTGNTYPATALPWGMNFWTPQTGKMGDGWAYTYDADKIRGFKQTHQPSPWMNDYGQFAIMPITGGLVFDQDRRASWFSHKAEVAKPYYYKVYLADHDVTTELAPTERAVMFRFTYPETKNAYVIVDAFDKGSYVKVIPEENKIIGYSTKNSGGVPENFKNYFVIQFDKPFTFVSTVFENNILPNETEAKGNHTGAVIGFATKKGEIVHARVASSFISPEQAELNLKELGKNSFDQLVANGREIWNREMSKIEIEDDNIDNLRTFYSCLYRSMLFPRSFYEIDAKGQVMHYSPYNGEVRPGYMFTDTGFWDTFRCLFPFLNLMYPSMNQKMQEGLVNTYKESGFLPEWASPGHRDCMVGNNSASVVADAYIKGLRGYDIETLWEALKHGANAHLRGTASGRLGYESYNQLGYVANNIGIGQNVARTLEYAYNDWAIYTLGKKLGKPENEIDIYKKHALNYKNVYHPERKLMVGKDNKGVFNPNFDAVDWSGEFCEGNSWHWSFCVFHDPQGLINLMGGKKEFNAMMDSVFVISGKLGMESRGMIHEMREMQVMNMGQYAHGNQPIQHMVYLYNYSSEPWKAQYWIREIMNKLYTAGPDGYCGDEDNGQTSAWYVFSALGFYPVCPGTDEYIIGTPLFKSAKLHLENGKTITIKADNNQLDNRYIKEMKVNGKSQTRNFLTHDQLIKGANIQFQMSPVPNKQRGTTEKDVPYSLSFE
kcat/Km [3]: Not Active | Km [4]: Not Active | kcat [4]: Not Active

B3: Alpha-1,2-mannosidase (BT_1878) (Bacteroides thetaiotaomicron), Q8A6K3 (protein)
chain: MIIMKRKSPVMAVALAGLFMYTSCSPTEQAETKDYTQYVNTFIGAADNGHTFPGACYPFGMIQTSPVTGAVGWRYCSEYTYQDSLIWGFTQTHLNGTGCMDLGDILVMPVTGTRARAWDAYRSHFPKDKEAATPGYYTVELSDPQVKAELTASIHAALHRYTYHKADSASLLIDLQHGPAWREEQYHSQVNSCEVNWEDAQTLAGHVNNTVWVDQDYFFVMKFNRPVIDSLYLPMGETEKGKRIIATFDLKPGDELMMKVALSTTSVEGAKKNLQAEIPDWNFDGVKLAAHDEWNSYLSRMDVEGTDDEKTNFYTCFYHALIQPNQISDVDGMYRNAADSIVKAGTGTFYSTFSLWDTYRAAHPFYTLMVPERVDDFVNSLIEQGEVQGFLPIWALWGKENFCMIGNHGVSVIAEAYRKGFRGFDAERAFNMVKKTQTVSHPLKSDWEVYTKYGYFPTDLTKAESVSSTLESVYDDYAAADMARRMGKEEDAAYFAKRADYYKNLFDSQTNFMRPRKADGTWKSPFNPSDVGHAESTGGDYTEGNAWQYTWHVQHDVPGLIALFGGEEPFLNKLDSLFTVKLETTQADVTGLIGQYAHGNEPSHHVTYLYALAGRPERTQELIREIFDTQYKNKPDGLCGNDDCGQMSAWYMFSAMGFYPVDPVSGDYVFGAPQLPKIVLHLADGKTFTVIAENLSKEHKYVDSITLNGEPYTKNTISHEDILKGGTLVYKMK
Km [5]: 900 µM | kcat [5]: 0.00133 s⁻¹ | kcat/Km [6]: 1.48 M⁻¹ s⁻¹

B4: Alpha-1,2-mannosidase family protein (BT_1032) (Bacteroides thetaiotaomicron), Q8A8Y5 (protein)
chain: MRRILLTCTLAFTLLPVFGGEGKAPPMDKEKSLLIDYVDPFIGTTNFGTTNPGAVCPNGMMSVVPFNVMGSADNTYDKDARWWSTPYEHTNCFFTGYSHVNLSGVGCPELGSLLLMPTTGELNVDYKEYGSKYKDEQASPGYYSNYLTKYNIKTEVSATPRTGIARFTFPKGESHILLNLGEGLTNESGAMLRRVSDSEIEGMKLLGTFCYNPQAVFPIYFVMRVNKVPATTGYWKKQRPMTGVEAEWDRDQGKYKLYTRYGKEIAGDDVGAYFTFETEEGEQVEVQMGVSFVSIENARLNLDKEQSGKNFEQVLSDARAQWNDDLSRITVEGGTDAQKTVFYTALYHLLIHPNVLQDVNGEYPAMESDQILTTKGTRYTVFSLWDTYRNVHQLLTLVYPERQMEMVRTMLDMYREHGWFPKWELYGRETLTMEGDPSIPVIVDTWMKGLRDFDVDLAYEAMYKSATLPGAENLMRPDNDDYMSKGYVPLREQYDNSVSHALEYYIADFALSRFADALGKKKDAEMFYKRSLGYKHYYSKEFGTFRPILPDGTFYSPFNPRQGENFEPNPGFHEGNSWNYTFYVPHDVYGLAKLMGGKKPFVNKLQMVFDEGLYDPANEPDIAYAHLFSYFKGEEWRTQKETQRLLDKYFTTKPDGIPGNDDTGTMSAWAIFNMIGFYPDCPGLPEYALTTPVFNKVTIRLDPKWYKENELVIESNRTGSETLYINKVLLDGKKFNKYRITHDELVHGKRLIFDLK
kcat/Km [7]: 3.5 M⁻¹ s⁻¹ | Km [8]: 1700 µM | kcat [8]: 0.006 s⁻¹

B5: Alpha-1,2-mannosidase, putative (BT_3773) (Bacteroides thetaiotaomicron), Q8A193 (protein)
chain: MNAFKLLMAASCFLGLATSGVAKQDYSKSEGLLQYVDPYIGSGFHGHVFVGTSVPYGMVQLGPNNIHKGWDWCSGYHYSDSILIGFSHTHLSGTGCTDLGDILIMPLNEIRTPRGNQDDIRDGYASKYSHDNEIARPEYYSLILDRYNIKAELTATDRVGFHRYTYPEGKPVSILIDLREGNGSNAYDSYIRKVDDYTVEGYRYVRGWSPSRKVYFVLKSDQKIEKFTAYDDNTPKLWDQLKVESVKSVLTFGNVKEVKIKVAISSVSCDNAAMNLQAELSHWDFDKVVKMSSDRWNKQLDKMTVESDDEAAKRVFYTAHYHTMIAPTLYCDVNGEYRGMNDMIYTDPKKANYTTLSLWDTYRALNPLMTIIQPEMVDNVINSMLSIYRQQDKLPIWPLMSGETNCMPGYSSVPVIADAYLKGFTGFDAEEALTAMKATATYEGQNGVPYVMAKGYIPADKIHEATSIAMEYAVDDWGIAAMAQKMGKTADYETFSKRAHYYKNYFDSSIHFIRPKLEDGSWRTPYDPARSIHGVGDFCEGNGWQYTFFAPQDPYGLISLFGGDKPFTSKLDSFFTNNDSMGEGASSDITGLIGQYAHGNEPSHHIAYLYTYAGEQWKTAEKVRFIMSDFYTDQPDGIIGNEDCGQMSAWYLLSAMGFYQVNPSDGVFAFGSPRFKKIEVKVRGGKVFTVEAPNNSKDNIYIQKVYLNGKPYHKSYITYDDIINGSTLKFEMGKKPAKNFGKASANRPIVLNK
Km [9]: Not Active | kcat [9]: Not Active | kcat/Km [10]: Not Active
